Here are results for 139 substances from the supplement of paper PMC12042874.

± gives the uncertainty stated by the source.

The series can be described thus: amyloid nucleation score (Sup35N fusion, yeast selection) (log enrichment); library NNK2; higher = more nucleation; inactive = no reads after selection. Put shortly:
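Nucleation score is defined as the DiMSum log enrichment of output over input reads, with centring on the mode score of non-aggregating sequences. A minimum of 100 input reads was required for each sequence. Reads came from Illumina sequencing of plasmid inserts from psi-negative yeast expressing Sup35N fused to peptides of 20 random codons, induced with 100 μM copper sulfate for 24 hours and grown 7 days at 30°C on medium lacking adenine and uracil.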
Regarding VLTALVYVEITF, the amyloid nucleation score was determined as 5.41 ± 0.066.

Consider RYGRDGDRIIYNVCDFFFSG, for which the amyloid nucleation score amounted to 6.475 ± 0.047.

In the case of YYEIIWYTFQEKLSGCSSCS, the amyloid nucleation score is -2.02 ± 0.75.

As to VRRHADRGGVLAEISNEVVQ, the amyloid nucleation score is 0.608 ± 0.24.

VPRSQIVVGIMFP displayed an amyloid nucleation score of -1.06 ± 0.55.

In turn, MYFNSRSNYEYAYCWLFIVF registered an amyloid nucleation score of 0.492 ± 0.44.

Take FIDPGHFTLDLGCSPPESEV: the amyloid nucleation score is 4.5 ± 0.085.

As to SGIGVNSGAGRNMDLCDLKR, the amyloid nucleation score result was “inactive”.

For the substance GIKHVCAWDIN, the amyloid nucleation score entry is “inactive”.

In the case of TYPHVLTP, the amyloid nucleation score was -0.022 ± 0.37.

NVSRGTKIDNMDRVYFYPEA returned an amyloid nucleation score of -0.055 ± 0.46.

AHKKRDMWLRKPGL showed an amyloid nucleation score of 1.68 ± 0.53.

For the substance VFDSPLHQWFYIKLIMLSTL, the amyloid nucleation score result is “inactive”.

As to GYTRNHSLCFFFRMLYM, the amyloid nucleation score was -1.29 ± 1.

For the substance RNSMGTFSRWYPIMY, the amyloid nucleation score was -0.54 ± 0.48.

Substance MFVQCICRGIHIIVPGSVRS displayed an amyloid nucleation score of 3.88 ± 0.13.

On to LASSKEACVHTVMAIVSVGA, for which the amyloid nucleation score came out at 2.08 ± 0.12.

In turn, KDKGKNDRAIAWVLWGICVL yielded an amyloid nucleation score of 0.51 ± 0.51.

As for NKNRKQSLDKPS, the amyloid nucleation score is -0.493 ± 1.1.

For MYWLFR, the amyloid nucleation score is 0.461 ± 0.25.

As for CKPRNLLLLSPKPIVLCKDF, the amyloid nucleation score was -1.21 ± 0.79.

Substance ECGPWKFDRIERDMNAVVER came in with an amyloid nucleation score of 2.46 ± 0.17.

RMFIVHSCSTWLTNNGLNHM came in with an amyloid nucleation score of 5.318 ± 0.036.

As for RYIGGSLFFRYNIVGKRQGV, the amyloid nucleation score was found to be 3.81 ± 0.064.

For CVACLDM, the amyloid nucleation score result is “inactive”.

HFDFGFIGRDVIDVIDVRTN came in with an amyloid nucleation score of 0.039 ± 0.46.

In turn, NNKTKPVVFILSMYNYERFS had an amyloid nucleation score of 2.12 ± 0.25.

Take IVQLVIAVTGMFLYWNYAFL: the amyloid nucleation score is -0.461 ± 0.43.

MDTSYMVLCYKSQRRRSGSR gave an amyloid nucleation score of 0.776 ± 0.2.

For HIDVLMGCWMRIVTWSR, the amyloid nucleation score was found to be 2.17 ± 0.29.

In turn, YLCGFNIVPHRYINFRVWTE registered an amyloid nucleation score of 4.39 ± 0.11.

CLVFTRVWYCAIYRTSFKET displayed an amyloid nucleation score of -0.474 ± 0.38.

LMTSPSFIYVWSYTGFRMFG came in with an amyloid nucleation score of 4.983 ± 0.042.

Substance HRKAYEPWFGCNMTYAGLGN came in with an amyloid nucleation score of -0.232 ± 0.65.

Consider DDASKKLYS, for which the amyloid nucleation score was determined as 0.967 ± 0.15.

Substance WRNLDLK showed an amyloid nucleation score of -0.562 ± 1.1.

YDLCGTALTVLGTVIY returned an amyloid nucleation score of 1.15 ± 0.27.

Consider MSICANLVLWWLDL, for which the amyloid nucleation score was -0.607 ± 0.63.

For ASFMSISVYND, the amyloid nucleation score is -0.32 ± 0.63.

The substance QGHISHTGLIPMLGGSL registered an amyloid nucleation score of 3.23 ± 0.15.

As for LNNRISNVAAGSSLRIYLMD, the amyloid nucleation score was found to be 2.79 ± 0.062.

The substance YFIRRKIRMGGHLLTWSWWI returned an amyloid nucleation score of -0.104 ± 0.49.

LSRVSE gave an amyloid nucleation score of -0.405 ± 0.39.

As for VQKRRGFILTSFR, the amyloid nucleation score is -0.173 ± 0.39.

VCSTLVSFHHQRVKKVDAV gave an amyloid nucleation score of -1.12 ± 0.78.

On to WSPYEEPR, for which the amyloid nucleation score worked out at 0.298 ± 0.35.

FRTQAF registered an amyloid nucleation score of 1.16 ± 0.47.

Consider ALAYAWYLVGLLFSKVWRYS, for which the amyloid nucleation score worked out at 0.095 ± 0.42.

In turn, VVDVVIGYWGRVMSDGCVAG came in with an amyloid nucleation score of 0.816 ± 0.24.

As to KRNRQMSFRMVSLTRNTSPH, the amyloid nucleation score stood at 0.792 ± 0.53.

SWNELSRFLVILLFQLSRDR yielded an amyloid nucleation score of -0.795 ± 0.43.

With MSPYLWYGWLEAGLLGIRTL, the amyloid nucleation score was determined as 0.871 ± 0.34.

Substance VSAELWIQSSVTSAYIIWQL returned an amyloid nucleation score of 0.98 ± 0.81.

In the case of YSVLFL, the amyloid nucleation score was -0.722 ± 0.54.

Substance DIFLTLEFYISVETKGAKKA gave an amyloid nucleation score of 3.92 ± 0.05.

With TCICEVHTPTSSMISPSMSF, the amyloid nucleation score was -1.51 ± 0.75.

As for TGSWNGCVKWASRLKRAGGR, the amyloid nucleation score worked out at 0.643 ± 0.64.

For YSCQFFCSVLLCLYVSHITN, the amyloid nucleation score result is “inactive”.

For the substance YRNVPRRMYRCVGISWS, the amyloid nucleation score stood at 1.13 ± 0.11.

SDDFTYSIYFMSWFFYGSYN: the amyloid nucleation score entry is “inactive”.

Substance TRSDMLVLLCIIMCFSYSYP came in with an amyloid nucleation score of 6.31 ± 0.09.

NTTSARSERR: the amyloid nucleation score is -0.212 ± 0.37.

Turning to DRYWLERWSDGNCGRSARIR, the amyloid nucleation score was found to be 1.22 ± 0.4.

Regarding CHFSYKECRSAVRMLQYNGA, the amyloid nucleation score was found to be 2.54 ± 0.13.

Substance YRCVDYKGIEYLLYREMLTT yielded an amyloid nucleation score of 3.93 ± 0.046.

As to LHSYVFTKGSRTQCRWRKNP, the amyloid nucleation score was 0.07 ± 0.28.

As to FFWNAGCSELFGEGHYNSLL, the amyloid nucleation score entry is “inactive”.

Regarding YNGLMNISIATMC, the amyloid nucleation score was -1.17 ± 0.74.

In the case of ELGHDYYSCCGFSAREYMEH, the amyloid nucleation score came out at 4.56 ± 0.065.

In the case of LRSEFRFIYLRLTWKVR, the amyloid nucleation score result is “inactive”.

Substance LVAFLGQIEPSRTQRTLGSG displayed an amyloid nucleation score of 0.001 ± 0.39.

Turning to PFTMSVFKSYKIAQRSSWAW, the amyloid nucleation score was found to be 2.5 ± 0.089.

In turn, IRKYVAWNLRALTMAMIQQR returned an amyloid nucleation score of -0.959 ± 0.48.

Consider FKFYSRSAYSHHRFSIYCDR, for which the amyloid nucleation score was -1.22 ± 1.1.

Consider NLRVSFGREDCL, for which the amyloid nucleation score is -0.347 ± 0.55.

YGFSGMMNSFSFHGC: the amyloid nucleation score came out at 6.07 ± 0.083.

In turn, QSMICTFFVLCLRSRYW displayed an amyloid nucleation score of 4.46 ± 0.068.

LSSKCYVA came in with an amyloid nucleation score of -0.874 ± 1.

With FTVDCLVVIFVYIEPMNWMG, the amyloid nucleation score amounted to 0.672 ± 0.62.

Substance AYLTTREAVGLFNKACLASY yielded an amyloid nucleation score of 0.439 ± 0.74.

Substance NSRLRRVYAGSARGAWTYRR registered an amyloid nucleation score of 1.14 ± 0.38.

With KDVTVNIRWTLIQLLYHTNF, the amyloid nucleation score is 4.08 ± 0.11.

The substance DWKNYRMMHVEVWTACRILG yielded an amyloid nucleation score of 0.734 ± 0.81.

On to VGRRSSKYESAELRVGSEVV, for which the amyloid nucleation score is 1.71 ± 0.12.

PVYSSFYCCYVWHRNFRKYT yielded an amyloid nucleation score of -0.975 ± 0.29.

With WHCVRVIQRSWCVKEGSKGC, the amyloid nucleation score is 0.118 ± 0.45.

In the case of TVLFKGLRYRRNFKFGTQTT, the amyloid nucleation score is -0.056 ± 0.76.

Take DIFITTSSFTLRCAYIIKGI: the amyloid nucleation score is -1.44 ± 0.78.

The substance DFMRELYFMGSRPFEMLYMY had an amyloid nucleation score of 0.102 ± 0.77.

LLIKSSCFCSLDVFFS yielded an amyloid nucleation score of 3.69 ± 0.089.

On to LRESFKRWMLVVAATLYAFK, for which the amyloid nucleation score was determined as 0.376 ± 0.48.

As to CLFVTVGFCICCLFFLWFCL, the amyloid nucleation score came out at 5 ± 0.1.

PQRLWISISAHTLKFPHL had an amyloid nucleation score of 3.77 ± 0.073.

Substance MLTFF came in with an amyloid nucleation score of -0.409 ± 0.76.

CVLTRVFETTSCVSIHLF showed an amyloid nucleation score of -1.64 ± 0.79.

Regarding FLLSISNRVDMFIFVLHHFT, the amyloid nucleation score result is “inactive”.

Substance KTCSACVSIKICLLNDGGNW had an amyloid nucleation score of 9.63 ± 0.052.

As to DWGGVLCATVG, the amyloid nucleation score result was “inactive”.

In turn, RRWVG gave an amyloid nucleation score of 0.015 ± 0.45.

For the substance MGVDLPIASLCSNCGEAGLG, the amyloid nucleation score was determined as 0.199 ± 0.43.

In turn, LWEVLWVFFDLNNVRLTMCN gave an amyloid nucleation score of -0.93 ± 0.78.

The substance FVNFMGWTMSNINNVYFGHK displayed an amyloid nucleation score of 7.303 ± 0.055.

Substance LNHCG displayed an amyloid nucleation score of 0.738 ± 0.55.

In turn, SFRYLCIRNGTSYGMYTSPV came in with an amyloid nucleation score of 0.478 ± 0.8.

With FCISFYTNIPSDS, the amyloid nucleation score was -0.836 ± 0.55.

HEHLLPRT gave an amyloid nucleation score of 0.02 ± 0.74.

In turn, NRTTSVWG yielded an amyloid nucleation score of -0.889 ± 1.

The substance KRAMPLSLTSRRLWISSGTG had an amyloid nucleation score of -0.708 ± 1.1.

Consider SPMTDLVRMRGRME, for which the amyloid nucleation score came to 0.051 ± 0.49.

ILEFKINPG returned an amyloid nucleation score of -1.05 ± 0.43.

Substance YALAAVSRFG displayed an amyloid nucleation score of 0.22 ± 0.55.

Consider LNLGILAFSKVKIGVFQFYE, for which the amyloid nucleation score is 6.834 ± 0.037.

With ISPNALEAQMPTQCNYEDGE, the amyloid nucleation score amounted to 0.451 ± 0.48.

Substance VLYSFSGVTPWHKYPCNCV gave an amyloid nucleation score of 0.256 ± 0.46.

As for GCISSVQD, the amyloid nucleation score entry was “inactive”.

Turning to GSNCIEVFRGWVKFGMDCFW, the amyloid nucleation score result was “inactive”.

As for IFSNLRSFE, the amyloid nucleation score was 0.657 ± 0.22.

Turning to FTKVFRLHYFMRLTSMYVAF, the amyloid nucleation score is -0.567 ± 1.1.

Substance HSVLEYFVTLCSNFLLWWVL returned an amyloid nucleation score of -0.192 ± 0.65.

With CRLADFAPFRHCFFSHDCSR, the amyloid nucleation score amounted to 3.57 ± 0.046.

As for FFLAPKGKTSYGRGN, the amyloid nucleation score entry was “inactive”.

The substance TGLDFGNLLLARCMSRV had an amyloid nucleation score of 0.43 ± 0.32.

For the substance WTPTVFVDMHPSNGLVDILY, the amyloid nucleation score is -0.896 ± 0.61.

Substance PSRYAVLLCFGGVDTNVGIT displayed an amyloid nucleation score of 4.967 ± 0.049.

The substance RTWSIFIASVKYVKV gave an amyloid nucleation score of -0.24 ± 0.74.

PSIDSCRGRLVVRVQIRVEN: the amyloid nucleation score was -1.24 ± 1.1.

Regarding DLGGQMNYLVLMGNDMWNV, the amyloid nucleation score was -1.01 ± 0.78.

Regarding NLDEVFMFTSTHLVIPLESK, the amyloid nucleation score is -1.6 ± 0.75.

GSFSGKYPRHR returned an amyloid nucleation score of -0.266 ± 1.

For the substance WSMFLLRMAPMRMLTTINFV, the amyloid nucleation score was -0.504 ± 0.33.

With LGIVVVHWTPIIAGW, the amyloid nucleation score was -1.11 ± 0.56.

Regarding IVAEMW, the amyloid nucleation score came to 1.75 ± 0.4.

In turn, GLDMDGSVLPFVFYRSMYGE had an amyloid nucleation score of 0.136 ± 0.55.

Take SSTVCCHALVCSVSNFGFTV: the amyloid nucleation score stood at 9.783 ± 0.038.

As for QIQVLGWSRKSLMDNKL, the amyloid nucleation score entry was “inactive”.

The substance LYENRQFFCQGFGRWCMKLL yielded an amyloid nucleation score of 0.45 ± 0.74.

Regarding CASAVLCCPKTSR, the amyloid nucleation score was -0.02 ± 0.34.

Regarding SFSDVLNSGVRCF, the amyloid nucleation score worked out at 0.234 ± 0.35.

On to KFRCASWLCRSTKAWRRCGA, for which the amyloid nucleation score came out at 4.75 ± 0.049.
